Source: publication PMC13379236 (2026)

B1: C-terminal FLAG-tagged WT ZYG11B [human] / Strep-tagged NLRP1, C-terminal fragment generated by 3C cleavage (begins at G131) [human] (parent complex)
chain 1: PEDQAGAAMEEASPYSLLDICLNFLTTHLEKFCSARQDGTLCLQEPGVFPQEVADRLLRTMAFHGLLNDGTVGIFRGNQMRLKRACIRKAKISAVAFRKAFCHHKLVELDATGVNADITITDIISGLGSNKWIQQNLQCLVLNSLTLSLEDPYERCFSRLSGLRALSITNVLFYNEDLAEVASLPRLESLDISNTSITDITALLACKDRLKSLTMHHLKCLKMTTTQILDVVRELKHLNHLDISDDKQFTSDIALRLLEQKDILPNLVSLDVSGRKHVTDKAVEAFIQQRPSMQFVGLLATDAGYSEFLTGEGHLKVSGEANETQIAEALKRYSERAFFVREALFHLFSLTHVMEKTKPEILKLVVTGMRNHPMNLPVQLAASACVFNLTKQDLAAGMPVRLLADVTHLLLKAMEHFPNHQQLQKNCLLSLCSDRILQDVPFNRFEAAKLVMQWLCNHEDQNMQRMAVAIISILAAKLSTEQTAQLGTELFIVRQLLQIVKQKTNQNSVDTTLKFTLSALWNLTDESPTTCRHFIENQGLELFMRVLESFPTESSIQQKVLGLLNNIAEVQELHSELMWKDFIDHISSLLHSVEVEVSYFAAGIIAHLISRGEQAWTLSRSQRNSLLDDLHSAILKWPTPECEMVAYRSFNPFFPLLGCFTTPGVQLWAVWAMQHVCSKNPSRYCSMLIEEGGLQHLYNIKDHEHTDPHVQQIAVAILDSLEKHIVRHGRPPPCKKQPQARLN
chain 2: GSERRVLRQLPDTSGRRWREISASLLYQALPSSPDHESPSQESPNAPTSTAVLGSWGSPPQPSLAPREQEAPGTQWPLDETSGIYYTEIREREREKSEKGRPPWAAVVGTPPQAHTSLQPHHHPWEPSVRESLCSTWPWKNEDFNQKFTQLLLLQRPHPRSQDPLVKRSWPDYVEENRGHLIEIRDLFGPGLDTQEPRIVILQGAAGIGKSTLARQVKEAWGRGQLYGDRFQHVFYFSCRELAQSKVVSLAELIGKDGTATPAPIRQILSRPERLLFILDGVDEPGWVLQEPSSELCLHWSQPQPADALLGSLLGKTILPEASFLITARTTALQNLIPSLEQARWVEVLGFSESSRKEYFYRYFTDERQAIRAFRLVKSNKELWALCLVPWVSWLACTCLMQQMKRKEKLTLTSKTTTTLCLHYLAQALQAQPLGPQLRDLCSLAAEGIWQKKTLFSPDDLRKHGLDGAIISTFLKMGILQEHPIPLSYSFIHLCFQEFFAAMSYVLEDEKGRGKHSNCIIDLEKTLEAYGIHGLFGASTTRFLLGLLSDEGEREMENIFHCRLSQGRNLMQWVPSLQLLLQPHSLESLHCLYETRNKTFLTQVMAHFEEMGMCVETDMELLVCTFCIKFSRHVKKLQLIEGRQHRSTWSPTMVVLFRWVPVTDAYWQILFSVLKVTRNLKELDLSGNSLSHSAVKSLCKTLRRPRCLLETLRLAGCGLTAEDCKDLAFGLRANQTLTELDLSFNVLTDAGAKHLCQRLRQPSCKLQRLQLVSCGLTSDCCQDLASVLSASPSLKELDLQQNNLDDVGVRLLCEGLRHPACKLIRLGLDQTTLSDEMRQELRALEQEKPQLLIFSRRKPSVMTPTEGLDTGEMSNSTSSLKRQRLGSERAASHVAQANLKLLDVSKIFPIAEIAEESSPEVVPVELLCVPSPASQGDLHTKPLGTDDDFWGPTGPVATEVVDKEKNLYRVHFPVAGSYRWPNTGLCFVMREAVTVEIEFCVWDQFLGEINPQHSWMVAGPLLDIKAEPGAVEAVHLPHFVALQGGHVDTSLFQMAHFKEEGMLLEKPARVELHHIVLENPSFSPLGVLLKMIHNALRFIPVTSVVLLYHRVHPEEVTFHLYLIPSDCSIRKAIDDLEMKFQFVRIHKPPPLTPLYMGCRYTVSGSGSGMLEILPKELELCYRSPGEDQLFSEFYVGHLGSGIRLQVKDKKDETLVWEALVKPGDLMPATTLIPPARIAVPSPLDAPQLLHFVDQYREQLIARVTSVEVVLDKLHGQVLSQEQYERVLAENTRPSQMRKLFSLSQSWDRKCKDGLYQALKETHPHLIMELWEKGSKKGLLPLSS

Variants of: B1
Assay: coIP with western blot quantification; HEK293T cells, transfected for 48 h, with 3C protease; read off a plot

Q: chain 1 R465A was tested. Which ratio to parent did it give?
A: ~0.27

Q: Which ratio to parent does the source give for chain 1 W521A here?
A: ~0.05

Q: For chain 1 E569A, which ratio to parent is on record?
A: ~0.05

Q: With chain 1 D434K as the variant, how does the ratio to parent read?
A: ~0.94

Q: For chain 1 D525A, which ratio to parent is on record?
A: ~0.05

Q: For chain 1 F515A, which ratio to parent is on record?
A: ~0.85

Q: Which ratio to parent does the source give for chain 1 Y684A here?
A: ~0.51

Q: How did the ratio to parent turn out when chain 1 E643K was run?
A: ~0.5

Q: chain 1 N566A was tested. Which ratio to parent did it give?
A: ~0.08

Q: chain 1 K514E was tested. Which ratio to parent did it give?
A: ~1.1
